Test [1] concerns the target CD3 epsilon-delta heterodimeric protein (Acro Biosystems) (Homo sapiens (assumed)) (UniProt P07766). Put plainly: SPR; IgGs or Fc fusions captured on antihuman Fc polyclonal antibodies amine-coupled to a CM5 chip; spike trimer or CD3 epsilon-delta heterodimer injected; blank flow cell subtracted; 1:1 Langmuir model, simultaneous global fit of ka and kd, KD = kd/ka; BIAcore 2000 (methods) or BIAcore T100 (footnote of Table S3).

The target of test [2] is T1, CD3 epsilon-delta heterodimeric protein (Acro Biosystems) (Homo sapiens (assumed), UniProt P07766;P04234).
T1 construct: also called recombinant CD3delta epsilon; CD3delta-epsilon
The description is as above. To be noted: both partners purified.

T1 sequence (P07766 23-126, stated change not applied, chain 1 of 2): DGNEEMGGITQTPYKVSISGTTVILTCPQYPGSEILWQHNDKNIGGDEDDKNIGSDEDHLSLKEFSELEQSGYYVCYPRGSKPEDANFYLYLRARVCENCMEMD
T1 sequence (P04234 22-171, stated change not applied, chain 2 of 2): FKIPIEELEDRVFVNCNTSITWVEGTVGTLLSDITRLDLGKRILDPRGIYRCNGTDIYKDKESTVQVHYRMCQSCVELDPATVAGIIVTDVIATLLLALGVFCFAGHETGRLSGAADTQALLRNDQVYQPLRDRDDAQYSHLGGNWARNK

In test [1], “SC02, anti-S/CD3 bispecific CrossMab from CV3-25/UCHT1 (bispecific antibody)” gave a Kd of 0.29 nM, a koff of 0.000285 s⁻¹ and a kon of 974000 M⁻¹ s⁻¹.

B1: humanized UCHT1 (anti-CD3) (antibody, V domains shown)
VH: EVQLVESGGGLVQPGGSLRLSCAASGYSFTGYTMNWVRQAPGKGLEWVALINPYKGVSTYNQKFKDRFTISVDKSKNTAYLQMNSLRAEDTAVYYCARSGYYGDSDWYFDVWGQGTLVTVSS
VL: DIQMTQSPSSLSASVGDRVTITCRASQDIRNYLNWYQQKPGKAPKLLIYYTSRLESGVPSRFSGSGSGTDYTLTISSLQPEDFATYYCQQGNTLPWTFGQGTKVEIK
notes: also called anti-CD3 antibody
In test [2], B1 came in with a Kd of 0.16 nM.

As usually defined, the Kd is the equilibrium constant for the complex coming apart. Lower therefore signals a tighter complex. The koff is the first-order rate constant of dissociation. Read a low koff as slow dissociation. As a reminder, the kon is a measure of how fast the partners come together. Low values mean slower complex formation, high ones faster complex formation.

Values taken from PMC12005765 (Advanced Science, 2025).
